According to the supplement of paper PMC5998384:

Assays:
[1] = tested on: HeLa Kyoto; experiment: melting temperature (median over replicates), in situ; higher = more thermally stable
[2] = tested on: HeLa Kyoto; experiment: thermal stability score vs G1/S (z-score of summed log2 fold changes over temperatures); higher = more thermally stable than in G1/S
[3] = tested on: HeLa Kyoto; experiment: solubility in G1/S (NP-40 vs SDS abundance) (log2 ratio); higher = more soluble; conditions: cell cycle stage: G1/S
[4] = tested on: HeLa Kyoto; experiment: solubility change mitosis vs G1/S (difference of NP-40 vs SDS log2 ratios) (log2 ratio difference); higher = more soluble in mitosis
[5] = cell cycle stage: early G1 (4.5 h after nocodazole release)
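Wherever melting temperature (median over replicates), in situ is given: HeLa Kyoto cells synchronized by double thymidine or nocodazole block, proteins quantified by TMT10plex mass spectrometry, three independent biological replicates.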
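Wherever solubility change mitosis vs G1/S (difference of NP-40 vs SDS log2 ratios) is given: synchronized HeLa Kyoto cells (double thymidine block for G1/S, nocodazole release for mitosis), protein amounts in NP-40 versus SDS lysates quantified by mass spectrometry, three biological replicates.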
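Wherever solubility in G1/S (NP-40 vs SDS abundance) is given: HeLa Kyoto cells arrested at G1/S by double thymidine block, proteins quantified by TMT10plex mass spectrometry in mild NP-40 versus SDS extracts, three biological replicates.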
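Wherever thermal stability score vs G1/S (z-score of summed log2 fold changes over temperatures) is given: synchronized HeLa Kyoto cells, proteins quantified by TMT10plex mass spectrometry, three biological replicates, mitosis taken 0.5 h after nocodazole release, G1/S directly after double thymidine block.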

| Substance | melting temperature ([1]; cell cycle stage: G1/S) | melting temperature ([1]; cell cycle stage: mitosis) | thermal stability score [2, 5] | thermal stability score ([2]; cell cycle stage: mitosis) | solubility in G1/S (log2) [3] | solubility change mitosis (log2) [4] |
| --- | --- | --- | --- | --- | --- | --- |
| LAMB1 | 53.6 °C | 54.2 °C | 3.04 | 4.45 | 0.0818 | -0.0866 |
| MSRLRALLGLGLLVAGSRVPRIKSQTIACRSGPTWWGPQRLNSGGRWDSEVMASTVVKYLSQEEAQAVDQELFNEYQFSVDQLMELAGLSCATAIAKAYPPTSMSRSPPTVLVICGPGNNGGDGLVCARHLKLFGYEPTIYYPKRPNKPLFTALVTQCQKMDIPFLGEMPAEPMTIDELYELVVDAIFGFSFKGDVREPFHSILSVLKGLTVPIASIDIPSGWDVEKGNAGGIQPDLLISLTAPKKSATQFTGRYHYLGGRFVPPALEKKYQLNLPPYPDTECVYRLQ [APOA1BP] | 56.4 °C | 55.3 °C | -2.06 | -3.77 | 0.462 | 0.417 |
| MUC16 | 53.5 °C | 53.5 °C | -2.6 | -5.24 | -0.172 | -0.177 |
| MVLSQRQRDELNRAIADYLRSNGYEEAYSVFKKEAELDVNEELDKKYAGLLEKKWTSVIRLQKKVMELESKLNEAKEEFTSGGPLGQKRDPKEWIPRPPEKYALSGHRSPVTRVIFHPVFSVMVSASEDATIKVWDYETGDFERTLKGHTDSVQDISFDHSGKLLASCSADMTIKLWDFQGFECIRTMHGHDHNVSSVAIMPNGDHIVSASRDKTIKMWEVQTGYCVKTFTGHREWVRMVRPNQDGTLIASCSNDQTVRVWVVATKECKAELREHEHVVECISWAPESSYSSISEATGSETKKSGKPGPFLLSGSRDKTIKMWDVSTGMCLMTLVGHDNWVRGVLFHSGGKFILSCADDKTLRVWDYKNKRCMKTLNAHEHFVTSLDFHKTAPYVVTGSVDQTVKVWECR [PAFAH1B1] | 55.8 °C | 55.5 °C | 1.3 | -0.762 | -0.211 | -0.149 |
| PROSC | 48.8 °C | 49.7 °C | 1.09 | 0.951 | 0.225 | -0.0262 |
| MSHVAVENALGLDQQFAGLDLNSSDNQSGGSTASKGRYIPPHLRNREATKGFYDKDSSGWSSSKDKDAYSSFGSRSDSRGKSSFFSDRGSGSRGRFDDRGRSDYDGIGSRGDRSGFGKFERGGNSRWCDKSDEDDWSKPLPPSERLEQELFSGGNTGINFEKYDDIPVEATGNNCPPHIESFSDVEMGEIIMGNIELTRYTRPTPVQKHAIPIIKEKRDLMACAQTGSGKTAAFLLPILSQIYSDGPGEALRAMKENGRYGRRKQYPISLVLAPTRELAVQIYEEARKFSYRSRVRPCVVYGGADIGQQIRDLERGCHLLVATPGRLVDMMERGKIGLDFCKYLVLDEADRMLDMGFEPQIRRIVEQDTMPPKGVRHTMMFSATFPKEIQMLARDFLDEYIFLAVGRVGSTSENITQKVVWVEESDKRSFLLDLLNATGKDSLTLVFVETKKGADSLEDFLYHEGYACTSIHGDRSQRDREEALHQFRSGKSPILVATAVAARGLDISNVKHVINFDLPSDIEEYVHRIGRTGRVGNLGLATSFFNERNINITKDLLDLLVEAKQEVPSWLENMAYEHHYKGSSRGRSKSSRFSGGFGARDYRQSSGASSSSFSSSRASSSRSGGGGHGSSRGFGGGGYGGFYNSDGYGGNYNSQGVDWWGN [DDX3X] | 47.4 °C | 47.4 °C | -0.877 | 2.82 | -0.457 | 0.197 |
| MPKRKVTFQGVGDEEDEDEIIVPKKKLVDPVAGSGGPGSRFKGKHSLDSDEEEDDDDGGSSKYDILASEDVEGQEAATLPSEGGVRITPFNLQEEMEEGHFDADGNYFLNRDAQIRDSWLDNIDWVKIRERPPGQRQASDSEEEDSLGQTSMSAQALLEGLLELLLPRETVAGALRRLGARGGGKGRKGPGQPSSPQRLDRLSGLADQMVARGNLGVYQETRERLAMRLKGLGCQTLGPHNPTPPPSLDMFAEELAEEELETPTPTQRGEAESRGDGLVDVMWEYKWENTGDAELYGPFTSAQMQTWVSEGYFPDGVYCRKLDPPGGQFYNSKRIDFDLYT [CD2BP2] | 47.9 °C | 51.2 °C | 0.517 | 0.833 | 0.00357 | 0.301 |
